Reference: IntAct's records for PubMed 24768165

B1: Protein wntless homolog (Homo sapiens), Q5T9L3 (parent)
chain: MAGAIIENMSTKKLCIVGGILLVFQIIAFLVGGLIAPGPTTAVSYMSVKCVDARKNHHKTKWFVPWGPNHCDKIRDIEEAIPREIEANDIVFSVHIPLPHMEMSPWFQFMLFILQLDIAFKLNNQIRENAEVSMDVSLAYRDDAFAEWTEMAHERVPRKLKCTFTSPKTPEHEGRYYECDVLPFMEIGSVAHKFYLLNIRLPVNEKKKINVGIGEIKDIRLVGIHQNGGFTKVWFAMKTFLTPSIFIIMVWYWRRITMMSRPPVLLEKVIFALGISMTFINIPVEWFSIGFDWTWMLLFGDIRQGIFYAMLLSFWIIFCGEHMMDQHERNHIAGYWKQVGPIAVGSFCLFIFDMCERGVQLTNPFYSIWTTDIGTELAMAFIIVAGICLCLYFLFLCFMVFQVFRNISGKQSSLPAMSKVRRLHYEGLIFRFKFLMLITLACAAMTVIFFIVSQVTEGHWKWGGVTVQVNSAFFTGIYGMWNLYVFALMFLYAPSHKNYGEDQSNGDLGVHSGEELQLTTTITHVDGPTEIYKLTRKEAQE

Variants of: B1
Settings: with wnt3a_human WNT3A

| Variant | effect of a mutation on the interaction |
| --- | --- |
| MAGAIIENMSTKKLCIVGGILLVFQIIAFLVGGLIAPGPTTAVSYMSVKCVDARKNHHKTKWFVPWGPNHCDKIRDIEEAIPREIEANDIVFSVHIPLPHMEMSPWFQFMLFILQLDIAFKLNNQIRENAEVSMDVSLAYRDDAFAEWTEMAHERVPRKLKCTFTSPKTPEHEGRYYECDVLPFMEIGSVAHKFYLLNIRLPVNEKKKINVGIGEIKDIRLVGIHQNGGFTKVWFAMKTFLTPSIFIIMVWYWRRITMMSRPPVLLEKVIFALGISMTFINIPVEWFSIGFDWTWMLLFGDIRQGIFYAMLLSFWIIFCGEHMMDQHERNHIAGYWKQVGPIAVGSFCLFIFDMCERGVQLTNPFYSIWTTDIGTELAMAFIIVAGICLCLYFLFLCFMVFQVFRNISGKQSSLPAMSKVRRLHYEGLIFRFKFLMLITLACAAMTVIFFIVSQVTEGHWKWGGVTVQVNSAFFTGIYGMWNLYVFALMFLYAPSHKNYGEDQSNGDLGVHSGEELQLTTTITHVDGPTEIYKLTRKAAQE [E538A] | with no effect |
| MAGAIIENMSTKKLCIVGGILLVFQIIAFLVGGLIAPGPTTAVSYMSVKCVDARKNHHKTKWFVPWGPNHCDKIRDIEEAIPREIEANDIVFSVHIPLPHMEMSPWFQFMLFILQLDIAFKLNNQIRENAEVSMDVSLAYRDDAFAEWTEMAHERVPRKLKCTFTSPKTPEHEGRYYECDVLPFMEIGSVAHKFYLLNIRLPVNEKKKINVGIGEIKDIRLVGIHQNGGFTKVWFAMKTFLTPSIFIIMVWYWRRITMMSRPPVLLEKVIFALGISMTFINIPVEWFSIGFDWTWMLLFGDIRQGIFYAMLLSFWIIFCGEHMMDQHERNHIAGYWKQVGPIAVGSFCLFIFDMCERGVQLTNPFYSIWTTDIGTELAMAFIIVAGICLCLYFLFLCFMVFQVFRNISGKQSSLPAMSKVRRLHYEGLIFRFKFLMLITLACAAMTVIFFIVSQVTEGHWKWGGVTVQVNSAFFTGIYGMWNLYVFALMFLYAPSHKNYGEDQSNGDLGVHSGEELQLTTTITHVDGPTEIYKLTAKEAQE [R536A] | with no effect |
| MAGAIIENMSTKKLCIVGGILLVFQIIAFLVGGLIAPGPTTAVSYMSVKCVDARKNHHKTKWFVPWGPNHCDKIRDIEEAIPREIEANDIVFSVHIPLPHMEMSPWFQFMLFILQLDIAFKLNNQIRENAEVSMDVSLAYRDDAFAEWTEMAHERVPRKLKCTFTSPKTPEHEGRYYECDVLPFMEIGSVAHKFYLLNIRLPVNEKKKINVGIGEIKDIRLVGIHQNGGFTKVWFAMKTFLTPSIFIIMVWYWRRITMMSRPPVLLEKVIFALGISMTFINIPVEWFSIGFDWTWMLLFGDIRQGIFYAMLLSFWIIFCGEHMMDQHERNHIAGYWKQVGPIAVGSFCLFIFDMCERGVQLTNPFYSIWTTDIGTELAMAFIIVAGICLCLYFLFLCFMVFQVFRNISGKQSSLPAMSKVRRLHYEGLIFRFKFLMLITLACAAMTVIFFIVSQVTEGHWKWGGVTVQVNSAFFTGIYGMWNLYVFALMFLYAPSHKNYGEDQSNGDLGVHSGEELQLTTTITHVDGPTEIYKLTRKEAQA [E541A] | with no effect |
| MAGAIIENMSTKKLCIVGGILLVFQIIAFLVGGLIAPGPTTAVSYMSVKCVDARKNHHKTKWFVPWGPNHCDKIRDIEEAIPREIEANDIVFSVHIPLPHMEMSPWFQFMLFILQLDIAFKLNNQIRENAEVSMDVSLAYRDDAFAEWTEMAHERVPRKLKCTFTSPKTPEHEGRYYECDVLPFMEIGSVAHKFYLLNIRLPVNEKKKINVGIGEIKDIRLVGIHQNGGFTKVWFAMKTFLTPSIFIIMVWYWRRITMMSRPPVLLEKVIFALGISMTFINIPVEWFSIGFDWTWMLLFGDIRQGIFYAMLLSFWIIFCGEHMMDQHERNHIAGYWKQVGPIAVGSFCLFIFDMCERGVQLTNPFYSIWTTDIGTELAMAFIIVAGICLCLYFLFLCFMVFQVFRNISGKQSSLPAMSKVRRLHYEGLIFRFKFLMLITLACAAMTVIFFIVSQVTEGHWKWGGVTVQVNSAFFTGIYGMWNLYVFALMFLYAPSHKNYGEDQSNGDLGVHSGEELQLTTTITHVDGPTEIYKLTRAEAQE [K537A] | disrupting interaction strength |
| MAGAIIENMSTKKLCIVGGILLVFQIIAFLVGGLIAPGPTTAVSYMSVKCVDARKNHHKTKWFVPWGPNHCDKIRDIEEAIPREIEANDIVFSVHIPLPHMEMSPWFQFMLFILQLDIAFKLNNQIRENAEVSMDVSLAYRDDAFAEWTEMAHERVPRKLKCTFTSPKTPEHEGRYYECDVLPFMEIGSVAHKFYLLNIRLPVNEKKKINVGIGEIKDIRLVGIHQNGGFTKVWFAMKTFLTPSIFIIMVWYWRRITMMSRPPVLLEKVIFALGISMTFINIPVEWFSIGFDWTWMLLFGDIRQGIFYAMLLSFWIIFCGEHMMDQHERNHIAGYWKQVGPIAVGSFCLFIFDMCERGVQLTNPFYSIWTTDIGTELAMAFIIVAGICLCLYFLFLCFMVFQVFRNISGKQSSLPAMSKVRRLHYEGLIFRFKFLMLITLACAAMTVIFFIVSQVTEGHWKWGGVTVQVNSAFFTGIYGMWNLYVFALMFLYAPSHKNYGEDQSNGDLGVHSGEELQLTTTITHVDGPTEIYKLTRKEAAE [Q540A] | with no effect |

Variants of: B1
Settings: with wnt3a_human WNT3A
Remark: another data set of the same source

| Variant | effect of a mutation on the interaction |
| --- | --- |
| MAGAIIENMSTKKLCIVGGILLVFQIIAFLVGGLIAPGPTTAVSYMSVKCVDARKNHHKTKWFVPWGPNHCDKIRDIEEAIPREIEANDIVFSVHIPLPHMEMSPWFQFMLFILQLDIAFKLNNQIRENAEVSMDVSLAYRDDAFAEWTEMAHERVPRKLKCTFTSPKTPEHEGRYYECDVLPFMEIGSVAHKFYLLNIRLPVNEKKKINVGIGEIKDIRLVGIHQNGGFTKVWFAMKTFLTPSIFIIMVWYWRRITMMSRPPVLLEKVIFALGISMTFINIPVEWFSIGFDWTWMLLFGDIRQGIFYAMLLSFWIIFCGEHMMDQHERNHIAGYWKQVGPIAVGSFCLFIFDMCERGVQLTNPFYSIWTTDIGTELAMAFIIVAGICLCLYFLFLCFMVFQVFRNISGKQSSLPAMSKVRRLHAEGLIFRFKFLMLITLACAAMTVIFFIVSQVTEGHWKWGGVTVQVNSAFFTGIYGMWNLYVFALMFLYAPSHKNYGEDQSNGDLGVHSGEELQLTTTITHVDGPTEIYKLTRKEAQE [Y425A] | with no effect |
